One block for each molecule: values may come before it.
Tests used:
Fc protein (control) = test: native gel or EMSA; Blue Native PAGE of the purified recombinant proteins in aqueous solution
mouse podoplanin (PDPN) = target: T1, mouse podoplanin (PDPN) (mouse (endogenous in primary cultured …, UniProt Q62011 23-172)); test: cell-based or functional assay
T1 sequence (looked up): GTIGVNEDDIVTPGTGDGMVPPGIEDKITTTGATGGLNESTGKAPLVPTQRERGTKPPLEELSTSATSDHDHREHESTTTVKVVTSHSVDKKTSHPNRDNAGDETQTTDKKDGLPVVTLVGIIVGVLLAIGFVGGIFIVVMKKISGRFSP

- stoichiometry N (Fc protein (control)): 4
Molecule: Fc protein (control) (domain or fragment)

- pERM/ERM ratio by Western blot of glomerular lysate after infusion of FLAG-CLEC-2 (5 ug/g body weight), against controls (mouse podoplanin (PDPN)): 0.65 fold
B1: StepTagII-3FLAG-CLEC-2, a fusion of StrepTactin FLAG double tags and the C-terminal extracellular domain of mouse CLEC-2 (51-229) (domain or fragment, UniProt Q9JL99 51-229, looked up)
chain: GIMSVTQQKYLLAEKENLSATLQQLAKKFCQELIRQSEIKTKSTFEHKCSPCATKWRYHGDSCYGFFRRNLTWEESKQYCTEQNATLVKTASQSTLDYIAERITSVRWIGLSRQNSKKDWMWEDSSVLRKNGINLSGNTEENMNCAYLHNGKIHPASCKERHYLICERNAGMTRVDQLL
